{"source": "patent US20070111265A1", "about": "“Ligands for mineralocorticoid receptor (MR) and methods for screening for or designing MR ligands” (Van Andel Research Institute, priority 2005, published 2007)", "key": {"[1]": {"biological_target": "VP16-MR LBD (K782E) (human) (UniProt P08235)", "sequence (P08235 727-984 K782E)": "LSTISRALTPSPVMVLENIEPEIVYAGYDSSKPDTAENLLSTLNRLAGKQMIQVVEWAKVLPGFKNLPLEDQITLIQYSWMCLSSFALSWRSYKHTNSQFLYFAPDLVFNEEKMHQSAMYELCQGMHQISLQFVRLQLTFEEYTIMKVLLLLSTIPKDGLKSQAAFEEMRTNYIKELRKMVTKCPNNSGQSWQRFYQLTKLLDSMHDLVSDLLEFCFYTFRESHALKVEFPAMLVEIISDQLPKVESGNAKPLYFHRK", "assay": "cell-based or functional assay"}, "[2]": {"biological_target": "VP16-MR LBD (residues 727-984) (human) (UniProt P08235)", "sequence (P08235 727-984 limits assumed)": "as the sequence (P08235 727-984 K782E) above, with E56K counted along it", "assay": "cell-based or functional assay"}}, "data": [{"substance": "Gal4-SRC1-4 (GAL4-DBD fused with SRC1 residues 1240-1441) (from UniProt P04386 1-147; Q15788 1240-1441)", "values": [{"measurement": "activation of the reporter driven by the GAL4 DNA-binding sites (mammalian two hybrid, luciferase)", "setting": "[1]", "value": 1.7, "unit": "fold"}, {"measurement": "activation of the reporter driven by the GAL4 DNA-binding sites (mammalian two hybrid, luciferase)", "setting": "[2]", "value": 7, "unit": "fold"}]}]}
